Measured values published in patent US20100129369A1 (Eli Lilly, published 2010).

Columns and labels:
human c-Met [1] = target: T1, human c-Met (human, UniProt P08581 25-1390); experiment: cell-based or functional assay
human c-Met [2] = target: T1, human c-Met; experiment: cell-based or functional assay; remark: listed apart in the source
human c-Met [3] = target: T1, human c-Met; experiment: cell-based or functional assay; remark: listed apart in the source
human c-Met ECD-Fc-Flis [4] = target: T2, human c-Met ECD-Fc-Flis (human); experiment: HGF-blocking ELISA: HGF signal on coated c-Met ECD-Fc-Flis; Ab 0.48 ng/mL
T2 construct: c-Met ECD fused to Fc with flag- and His-tag at the C-terminus; also called human c-Met extracellular domain (ECD)-Fc-Flis fusion; human c-Met-Flis-Fc ECD
Protocol: (§1) Wells of 96-well EIA/RIA high binding plates (Costar, #2592) are coated with 100 μL of human c-Met ECD-Fc-Flis (SEQ ID NO:72) (2 μg/mL) in Dulbecco's phosphate buffered saline (DPBS) overnight at room temperature; washed four times with wash buffer (Tris-buffered saline, pH 8.0, with 0.05% (v/v) polysorbate 20 (TWEEN®-20) (TBS-T) (BioFX Labs, # WSHW-1000-01) in a plate washer; blocked by adding 300 μL of blocking buffer (TBS-T plus 1% (w/v) bovine serum albumin (BSA) (Jackson Immuno, #001-000-162); and incubating for 60 min. at 37° C. Blocking buffer is then removed from the wells and 50 μL of antibodies in blocking buffer at final concentrations as indicated in Table 7 are added into each well, respectively. […] The plates with c-Met antibodies are incubated for 90 min. at 37° C. […] The wells are then washed four times with TBS-T in a plate washer. […] The plates are incubated for 90 min. at room temperature. The wells are again washed four times with TBS-T in a plate washer. 100 μL of a 1:200 dilution of streptavidin-horseradish peroxidase (HRP) (R&D Systems, DY998) in blocking buffer are added to each well. The plates are incubated for 30 min. at room temperature. The wells are washed four times with TBS-T in a plate washer. 100 μL/well of substrate solution (BioFx, #TMBW-1000-01) are then added, and the plates are incubated for 10 min. at room temperature. To stop the reaction, 100 μL/well of stop solution (BioFx, # LSTP-1000-01) are added. The samples are read at a wavelength of 450-570 nm on a microplate reader (Spectra, MAX 190) and no background is subtracted.

human c-Met ECD-Fc-Flis [5] = target: T2, human c-Met ECD-Fc-Flis; experiment: HGF-blocking ELISA: HGF signal on coated c-Met ECD-Fc-Flis; Ab 1.91 ng/mL
Protocol: as §1

human c-Met ECD-Fc-Flis [6] = target: T2, human c-Met ECD-Fc-Flis; experiment: HGF-blocking ELISA: HGF signal on coated c-Met ECD-Fc-Flis; Ab 7.63 ng/mL
Protocol: as §1

human c-Met ECD-Fc-Flis [7] = target: T2, human c-Met ECD-Fc-Flis; experiment: HGF-blocking ELISA: HGF signal on coated c-Met ECD-Fc-Flis; Ab 30.52 ng/mL
Protocol: as §1

human c-Met ECD-Fc-Flis [8] = target: T2, human c-Met ECD-Fc-Flis; experiment: HGF-blocking ELISA: HGF signal on coated c-Met ECD-Fc-Flis; Ab 122.07 ng/mL
Protocol: as §1

human c-Met ECD-Fc-Flis [9] = target: T2, human c-Met ECD-Fc-Flis; experiment: HGF-blocking ELISA: HGF signal on coated c-Met ECD-Fc-Flis; Ab 488.28 ng/mL
Protocol: as §1

human c-Met ECD-Fc-Flis [10] = target: T2, human c-Met ECD-Fc-Flis; experiment: HGF-blocking ELISA: HGF signal on coated c-Met ECD-Fc-Flis; Ab 1953.13 ng/mL
Protocol: as §1

human c-Met ECD-Fc-Flis [11] = target: T2, human c-Met ECD-Fc-Flis; experiment: HGF-blocking ELISA: HGF signal on coated c-Met ECD-Fc-Flis; Ab 7812.50 ng/mL
Protocol: as §1

human c-Met ECD-Fc-Flis [12] = target: T2, human c-Met ECD-Fc-Flis; experiment: HGF-blocking ELISA: HGF signal on coated c-Met ECD-Fc-Flis; Ab 31250.00 ng/mL
Protocol: as §1

human c-Met ECD-Fc-Flis [13] = target: T2, human c-Met ECD-Fc-Flis; experiment: HGF-blocking ELISA: HGF signal on coated c-Met ECD-Fc-Flis; Ab 125000.00 ng/mL
Protocol: as §1

human c-Met ECD-Fc-Flis [14] = target: T2, human c-Met ECD-Fc-Flis; experiment: HGF-blocking ELISA: HGF signal on coated c-Met ECD-Fc-Flis; Ab 0.00 ng/mL (HGF only)
Protocol: as §1

T1 sequence (P08581 25-1390): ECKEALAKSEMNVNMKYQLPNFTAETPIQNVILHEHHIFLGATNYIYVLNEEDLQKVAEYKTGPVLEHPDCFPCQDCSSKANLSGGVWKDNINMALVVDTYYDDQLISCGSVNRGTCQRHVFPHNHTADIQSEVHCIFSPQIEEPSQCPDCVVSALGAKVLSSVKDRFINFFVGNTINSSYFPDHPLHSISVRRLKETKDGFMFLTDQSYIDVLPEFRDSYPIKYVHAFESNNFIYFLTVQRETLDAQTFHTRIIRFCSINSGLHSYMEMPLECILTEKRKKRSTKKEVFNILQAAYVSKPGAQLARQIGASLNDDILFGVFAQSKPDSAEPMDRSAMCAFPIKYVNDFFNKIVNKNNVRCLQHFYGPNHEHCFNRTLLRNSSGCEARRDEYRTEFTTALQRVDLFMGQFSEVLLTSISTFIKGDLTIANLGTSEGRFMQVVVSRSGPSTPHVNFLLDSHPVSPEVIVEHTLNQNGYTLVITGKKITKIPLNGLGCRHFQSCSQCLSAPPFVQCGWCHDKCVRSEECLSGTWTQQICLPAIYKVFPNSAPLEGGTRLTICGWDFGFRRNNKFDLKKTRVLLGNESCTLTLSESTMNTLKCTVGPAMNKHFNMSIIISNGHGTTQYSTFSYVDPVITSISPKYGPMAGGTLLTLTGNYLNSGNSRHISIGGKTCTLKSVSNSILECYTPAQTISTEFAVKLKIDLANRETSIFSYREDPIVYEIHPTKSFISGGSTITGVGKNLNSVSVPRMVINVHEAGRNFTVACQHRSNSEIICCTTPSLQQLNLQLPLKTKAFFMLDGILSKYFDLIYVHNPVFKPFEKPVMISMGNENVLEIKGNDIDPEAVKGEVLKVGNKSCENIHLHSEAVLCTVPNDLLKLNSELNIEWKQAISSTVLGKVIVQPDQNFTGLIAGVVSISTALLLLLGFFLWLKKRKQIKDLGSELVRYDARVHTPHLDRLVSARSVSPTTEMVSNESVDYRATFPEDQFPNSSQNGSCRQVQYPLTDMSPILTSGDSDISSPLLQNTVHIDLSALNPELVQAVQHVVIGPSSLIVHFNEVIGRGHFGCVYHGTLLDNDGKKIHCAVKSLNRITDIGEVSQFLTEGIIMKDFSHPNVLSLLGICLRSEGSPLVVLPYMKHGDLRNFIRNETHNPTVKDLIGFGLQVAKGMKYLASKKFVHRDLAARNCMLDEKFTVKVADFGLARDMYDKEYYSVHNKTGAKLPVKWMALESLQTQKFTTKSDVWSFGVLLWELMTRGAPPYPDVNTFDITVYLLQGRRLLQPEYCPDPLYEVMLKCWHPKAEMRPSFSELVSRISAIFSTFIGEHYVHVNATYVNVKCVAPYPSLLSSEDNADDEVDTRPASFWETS
T2 sequence (chain, as listed by the source): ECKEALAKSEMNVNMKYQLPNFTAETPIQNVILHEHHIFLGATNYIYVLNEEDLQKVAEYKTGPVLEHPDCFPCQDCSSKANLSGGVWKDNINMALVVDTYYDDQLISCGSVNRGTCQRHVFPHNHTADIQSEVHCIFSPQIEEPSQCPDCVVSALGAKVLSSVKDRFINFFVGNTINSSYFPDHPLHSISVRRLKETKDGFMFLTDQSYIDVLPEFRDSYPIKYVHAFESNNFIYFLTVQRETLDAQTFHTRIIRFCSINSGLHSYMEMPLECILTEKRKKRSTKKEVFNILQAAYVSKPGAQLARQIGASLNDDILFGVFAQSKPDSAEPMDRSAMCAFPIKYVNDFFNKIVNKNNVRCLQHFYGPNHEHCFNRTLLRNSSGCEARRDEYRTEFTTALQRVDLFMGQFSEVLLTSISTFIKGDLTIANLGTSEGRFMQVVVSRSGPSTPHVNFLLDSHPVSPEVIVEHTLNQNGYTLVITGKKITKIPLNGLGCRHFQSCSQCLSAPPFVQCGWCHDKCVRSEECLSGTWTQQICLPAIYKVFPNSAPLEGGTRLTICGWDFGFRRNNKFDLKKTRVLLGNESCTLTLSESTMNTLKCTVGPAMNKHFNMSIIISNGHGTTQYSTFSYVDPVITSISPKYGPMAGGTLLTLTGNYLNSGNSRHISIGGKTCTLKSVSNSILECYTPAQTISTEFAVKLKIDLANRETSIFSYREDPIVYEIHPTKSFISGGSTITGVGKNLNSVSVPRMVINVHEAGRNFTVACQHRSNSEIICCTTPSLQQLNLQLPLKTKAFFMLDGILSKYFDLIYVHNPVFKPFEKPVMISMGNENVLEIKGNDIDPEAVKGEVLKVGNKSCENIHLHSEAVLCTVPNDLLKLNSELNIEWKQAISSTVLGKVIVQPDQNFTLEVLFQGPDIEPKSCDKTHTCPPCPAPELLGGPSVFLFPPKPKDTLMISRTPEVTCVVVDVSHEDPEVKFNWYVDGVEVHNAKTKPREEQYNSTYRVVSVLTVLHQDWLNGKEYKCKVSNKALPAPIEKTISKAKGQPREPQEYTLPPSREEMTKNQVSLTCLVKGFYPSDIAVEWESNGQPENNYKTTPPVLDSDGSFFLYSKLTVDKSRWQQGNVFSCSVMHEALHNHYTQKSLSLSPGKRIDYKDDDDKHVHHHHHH

- % inhibition of HGF stimulated phospho-Met (ELISA, HCT116 cells), Ab 0.0032 µg/mL (human c-Met [1]): 9.48%
- % inhibition of HGF stimulated phospho-Met (ELISA, HCT116 cells), Ab 0.016 µg/mL (human c-Met [1]): 2.53%
- % inhibition of HGF stimulated phospho-Met (ELISA, HCT116 cells), Ab 0.08 µg/mL (human c-Met [1]): -3.24%
- % inhibition of HGF stimulated phospho-Met (ELISA, HCT116 cells), Ab 0.4 µg/mL (human c-Met [1]): 15.9%
- % inhibition of HGF stimulated phospho-Met (ELISA, HCT116 cells), Ab 2 µg/mL (human c-Met [1]): 31.4%
- % inhibition of HGF stimulated phospho-Met (ELISA, HCT116 cells), Ab 10 µg/mL (human c-Met [1]): 16.7%
- Mean Fluorescence (c-Met left on the surface of MKN45 cells, FACS), Ab 5.00 ug/mL (human c-Met [2]): 56.4
- AVG CPM, 3H-thymidine incorporation in MKN45 cells, Ab 0.0 ng/mL (no antibody) (human c-Met [3]): 44200 CPM
- AVG CPM, 3H-thymidine incorporation in MKN45 cells, Ab 0.1 ng/mL (human c-Met [3]): 44600 CPM
- AVG CPM, 3H-thymidine incorporation in MKN45 cells, Ab 0.4 ng/mL (human c-Met [3]): 45300 CPM
- AVG CPM, 3H-thymidine incorporation in MKN45 cells, Ab 2.6 ng/mL (human c-Met [3]): 49900 CPM
- AVG CPM, 3H-thymidine incorporation in MKN45 cells, Ab 15.4 ng/mL (human c-Met [3]): 39700 CPM
- AVG CPM, 3H-thymidine incorporation in MKN45 cells, Ab 92.6 ng/mL (human c-Met [3]): 21900 CPM
- AVG CPM, 3H-thymidine incorporation in MKN45 cells, Ab 555.6 ng/mL (human c-Met [3]): 20900 CPM
- AVG CPM, 3H-thymidine incorporation in MKN45 cells, Ab 3333.3 ng/mL (human c-Met [3]): 21200 CPM
- AVG CPM, 3H-thymidine incorporation in MKN45 cells, Ab 20000.0 ng/mL (human c-Met [3]): 19800 CPM
- AVG A450 nm (human c-Met ECD-Fc-Flis [4]): 2.15 A450 nm
- AVG A450 nm (human c-Met ECD-Fc-Flis [5]): 1.98 A450 nm
- AVG A450 nm (human c-Met ECD-Fc-Flis [6]): 2.08 A450 nm
- AVG A450 nm (human c-Met ECD-Fc-Flis [7]): 2.07 A450 nm
- AVG A450 nm (human c-Met ECD-Fc-Flis [8]): 1.69 A450 nm
- AVG A450 nm (human c-Met ECD-Fc-Flis [9]): 1.29 A450 nm
- AVG A450 nm (human c-Met ECD-Fc-Flis [10]): 1.23 A450 nm
- AVG A450 nm (human c-Met ECD-Fc-Flis [11]): 1.12 A450 nm
- AVG A450 nm (human c-Met ECD-Fc-Flis [12]): 1.17 A450 nm
- AVG A450 nm (human c-Met ECD-Fc-Flis [13]): 1.35 A450 nm
- AVG A450 nm (human c-Met ECD-Fc-Flis [14]): 2.43 A450 nm
B1: D11-S17Y (antibody, human IgG2, kappa, V domains shown)
VH: QVQLVQSGAEVKKPGSSVKVSCKASGYTFTSRYIHWVRQAPGQGLEWMGWIYPVTGDTYYNEKFKGRVTITADKSTSTAYMELSSLRSEDTAVYYCARGYGAFYYWGQGTLVTVSS
VL: EIVLTQSPGTLSLSPGERATLSCSVSSSISSTNLHWYQQKPGQAPRLLIYGTSYLASGIPDRFSGSGSGTDFTLTISRLEPEDFAVYYCQQWSSYPYSFGQGTKLEIKR
notes: Human engineered IgG2 kappa c-Met antibody; also called D11-S17Y IgG2
